Tests used:
delta opioid receptor [1] = target: delta opioid receptor (UniProt P41143); assay: PDSP receptor binding
delta opioid receptor [2] = target: delta opioid receptor (UniProt P41143); assay: PDSP receptor binding; log of Ki in M
delta opioid receptor [3] = target: delta opioid receptor (UniProt P41143); assay: PDSP receptor binding, selectivity against MOR

Substance: ZH853 (peptide)
- Ki (delta opioid receptor [1]): 271 nM
- Log Ki (delta opioid receptor [2]): -6.57
- del/mu (ratio of Ki at DOR to Ki at MOR) (delta opioid receptor [3]): 291

From US20250296958A1, “GL[…] E[…]” (THE ADMINISTRATORS OF THE TULANE EDUCATIONAL FUND, priority 2022, published 2025)
